# Assay results from patent US9777044B2, “GLUT-1 as a receptor for HTLV envelopes and its uses” (CENTRE NATIONAL DE LA RECHERCHE SCIENTIFIQUE (CNRS), priority 2003, dated 2017).
# B1: H1RBD: first 215 residues of HTLV-1 SU fused to a C-terminal rabbit IgG Fc tag (rFc) (protein)
# chain: DYSPSCCTLTIGVSSYHSKPCNPAQPVCSWTLDLLALSADQALQPPCPNLVSYSSYHATYSLYLFPHWIKKPNRNGGGYYSASYSDPCSLKCPYLGCQSWTCPYTGAVSSPYWKFQQDVNFTQEVSRLNINLHFSKCGFPFSLLVDAPGYDPIWFLNTEPSQLPPTAPPLLPHSNLDHILEPSIPWKSKLLTLVQVDVPRDCGCKPCICTVPEVSSVFIFPPKPKDVLTITLTPKVTCVVVDISKDDPEVQFSWFVDDVEVHTAQTQPREEQFNSTFRSVSELPIMHQDWLNGKEFKCRVNSAAFPAPIEKTISKTKGRPKAPQVYTIPPPKEQMAKDKVSLTCMITDFFPEDITVEWQWNGQPAENYKNTQPIMDTDGSYFVYSKLNVQKSNWEAGNTFTCSVLHEGLHNHHTEKSLSHSPGK
# Assays:
# 293T cells [1] = assay: Glucose consumption of transfected cells; type: cell-based, human; settings: normalized to cellular protein content
# Description: Envelope expression and metabolic measurements. 293T cells were transfected with the various envelope expression vectors using a modified version of the calcium phosphate method. After an overnight transfection, cells were washed in phosphate-buffered saline (PBS) and fresh medium was added. Media were harvested at the indicated time points, filtered through a 0.45-μm pore-size filter, and lactate and glucose were measured with enzymatic diagnostic kits (Sigma). Values were normalized to cellular protein content using the Bradford assay (Sigma) after solubilization of cells in lysis buffer (50 mM Tris-HCl pH 8.0, 150 mM NaCl, 0.1% sodium dodecyl sulfate, 1.0% Nonidet P-40, 0.5% deoxycholate) and clarification by centrifugation.
# 293T cells [2] = assay: Hexose uptake assay: 2-deoxyglucose; type: cell-based, human; settings: transfected 293T cells vs control cells
# Description: (§1) Assay of hexose uptake. 2-deoxy-D[1-^3H]glucose, D[U-^14C]fructose and 3-O-[^14C]methyl-D-glucose were obtained from Amersham. Hexose uptake assay were adapted from Harrison et al. 1991). After transfection, approximately 250,000 were seeded/well in 24-well plates. […] Uptake was initiated by adding labeled hexoses to a final concentration of 0.1 mM (2 μCi/ml for 2-2-deoxy-D[1-^3H]glucose and 0.2 μCi/ml for D[U-^14C]fructose and 3-O-[^14C]methyl-D-glucose) and cells were incubated for 5′ additional minutes. Cells were then resuspended in 500 μl cold serum-free glucose-free DMEM, wash one time in serum-free glucose-free DMEM, and solubilized in 400 μl of 0.1% SDS. 3 μl was used for Bradford normalization, while the rest was used for detection of either ^3H or ^14C by liquid scintillation in a Beckman counter.
# 293T cells [3] = assay: Hexose uptake assay: fructose; type: cell-based, human; settings: transfected 293T cells
# Description: as §1
# MCT1 and CD147 = assay: RBD binding upon overexpression of MCT1 and CD147; design: species or system human
# From the text: Extracellular lactate accumulates in cell cultures following its transport across cellular membranes by the MCT1 monocarboxylate transporter [Garcia, 1994]. Because HTLV and MLV share a common organization of the extracellular envelope [Kim, 2000] and the receptors for MLV Env are multispanning metabolite transporters [Overbaugh, 2001], we assessed whether the HTLV RBD bound to MCT1. Moreover, similar to our previous data concerning expression of the HTLV receptor on T cells [Manel, 2003], expression of MCT1 chaperone CD147 [Kirk, 2000] increases during T cell activation [Kasinrerk, 1992].
# Expression vectors. Full length envelope expression vectors for HTLV-1 (pCEL/2[Denesvre, 1995]) and Friend ecotropic MLV (pCEL/F [Denesvre, 1995]), have been previously described. For the HTLV-2 envelope, a fragment from pHTE2 [Rosenberg, 1998] encompassing the tax, rex and env genes and the 3′ LTR was inserted in the pCSI [Battini, 1999] vector (pCSIX.H2). […]
# Binding assays. […] Binding was analyzed on a FACSCalibur (Becton Dickinson) and data analysis was performed using CellQuest (Becton Dickinson) and WinMDI (Scripps) softwares.
# human erythrocytes = assay: RBD binding on freshly isolated human erythrocytes; settings: freshly isolated red blood cells
# Description: Binding assays. Binding assays were carried out as previously described [Manel, 2003]. Briefly, 5×10^5 cells (293T, HeLa, Jurkat or freshly isolated human erythrocytes) were incubated with 500 μl of H1RBD, H2RBD or ARBD supernatants for 30 min at 37° C., washed with PBA (1% BSA, 0.1% sodium azide in PBS), and incubated with a sheep anti-rabbit IgG antibody conjugated to fluorescein isothiocyanate (Sigma). […] Binding was analyzed on a FACSCalibur (Becton Dickinson) and data analysis was performed using CellQuest (Becton Dickinson) and WinMDI (Scripps) softwares.
# [4] = tested on: human primary hepatocytes; assay: RBD binding on human primary hepatocytes
molecule,measurement,setting,value
B1,Glucose consumption compared to control cells,293T cells [1],significantly decreased
same,decrease in 2-deoxyglucose uptake,293T cells [2],approximately 4 fold
same,Fructose uptake,293T cells [3],not altered
same,H1RBD binding upon separate and combined overexpression of MCT1 and CD147,MCT1 and CD147,did not result in increased H1RBD binding
same,binding on human erythrocytes,human erythrocytes,strikingly efficient
same,binding to human primary hepatocytes,[4],unable to detect H1RBD binding
